Laboratory results from patent US7588893.

What was measured:
[1] = target: poly-GT oligonucleotide tagged anti-TSH mouse monoclonal IgG; test: fluorescent microspheres on the poly-CA microspot carrying Poly-GT-Mouse IgG, confocal laser scanning, ex 488 / em 525
[2] = target: poly-CT oligonucleotide tagged rabbit IgG; test: fluorescent microspheres on the poly-GA microspot carrying Poly-CT-Rabbit IgG, confocal laser scanning, ex 488 / em 525; control 13.3 ± 0.5
[3] = target: poly-GT oligonucleotide tagged anti-TSH mouse monoclonal IgG; test: fluorescent microspheres on the poly-CA microspot carrying Poly-GT-Mouse IgG, confocal laser scanning, ex 568 / em 585; control 22.0 ± 0.2
[4] = target: poly-CT oligonucleotide tagged rabbit IgG; test: fluorescent microspheres on the poly-GA microspot carrying Poly-CT-Rabbit IgG, confocal laser scanning, ex 568 / em 585

| Yellow/Green Signal [1] | Yellow/Green Signal [2] | Red Signal [3] | Red Signal [4] | Substance |
| --- | --- | --- | --- | --- |
| 101 | 16.9 | – | – | goat anti-mouse IgG (whole molecule) antibody conjugated yellow-green FLUOSPHERES |
| – | – | 24 | 99.8 | goat anti-rabbit IgG (whole molecule) antibody conjugated red FLUOSPHERES |
